Laboratory results reported in patent US20100285988A1 (Memorial Sloan Kettering, published 2010).
Where no end group is shown, it is not given here. [ ]: non-standard residue; d: D form. Bpa = N[C@@H](Cc1ccc(C(=O)c2ccccc2)cc1)C(=O)O

Columns and labels:
PEN-2 = target: T1, PEN-2 (human, UniProt Q9NZ42 1-101); assay: photoaffinity labeling of HeLa membrane, streptavidin capture, western blot
T1 construct: Subunit of the γ-secretase complex in HeLa membrane
Excerpt: (§1) After the photolyzed membranes were solubilized, biotinylated proteins were captured, eluted and analyzed by western blotting with antibodies against biotin, PS1, nicastrin, PEN-2 and APH-1.

APH-1a = target: T2, APH-1a (human, UniProt Q96BI3 1-265, limits assumed); assay: as above
T2 construct: Subunit of the γ-secretase complex in HeLa membrane
Excerpt: as §1

binding result (PEN-2): no binding (tested: 300 nM)
binding result (APH-1a): no binding (tested: 300 nM)
B1: Aβ17-23BPA^20-biotin (peptide)
peptide: LVF[Bpa]AED-biotin
notes: used at 300 nM; also called biotinylated photoreactive peptide Aβ17-23; photoactive peptide
